The record followed here is patent US20220235103A1 (Molecular Partners, published 2022).

Common to all, as to test: cell-based or functional assay
The target of assay [1] is T1, spike protein of live SARS-CoV-2 (2019-nCoV/IDF0372/2020) (SARS-CoV-2, UniProt P0DTC2 14-1273).
Assay [2] deals with T2, SARS-CoV-2 spike protein, wild type (Wuhan) (SARS-CoV-2, UniProt P0DTC2 14-1273).
For assay [3], the target named is T3, SARS-CoV-2 spike protein D614G (SARS-CoV-2, UniProt P0DTC2 14-1273).
The target in assay [4] is SARS-CoV-2 spike protein G476S (SARS-CoV-2, UniProt P0DTC2 14-1273).
Assay [5] deals with T4, SARS-CoV-2 spike protein V483A (SARS-CoV-2, UniProt P0DTC2 14-1273).
In assay [6] the target is SARS-CoV-2 spike protein D614G x Q675H (SARS-CoV-2, UniProt P0DTC2 14-1273).
Assay [7] has as its target T2, SARS-CoV-2 spike protein, wild type …. The source holds these as a separate data set.
Assay [8] concerns the target T1, spike protein of live SARS-CoV-2 …. This is another data set of the same source.
Assay [9] concerns the target T2, SARS-CoV-2 spike protein, wild type …. This is another data set of the same source.
Assay [10] has the same target. The source holds these as a separate data set.
In assay [11] the target is SARS-CoV-2 spike protein variant B.1.351 (SARS-CoV-2, UniProt P0DTC2 14-1273).
The target in assay [12] is SARS-CoV-2 spike protein N501Y (SARS-CoV-2, UniProt P0DTC2 14-1273).
Assay [13] deals with SARS-CoV-2 spike protein E484K (SARS-CoV-2, UniProt P0DTC2 14-1273).
For assay [14], the target named is SARS-CoV-2 spike protein K417E (SARS-CoV-2, UniProt P0DTC2 14-1273).
Assay [15] concerns the target SARS-CoV-2 spike protein Y453F (SARS-CoV-2, UniProt P0DTC2 14-1273).
For assay [16], the target named is T3, SARS-CoV-2 spike protein D614G. This is another data set of the same source.
In assay [17] the target is SARS-CoV-2 spike protein S477N (SARS-CoV-2, UniProt P0DTC2 14-1273).
Assay [18] concerns the target SARS-CoV-2 spike protein N439K (SARS-CoV-2, UniProt P0DTC2 14-1273).
Assay [19] has as its target SARS-CoV-2 spike protein T478I (SARS-CoV-2, UniProt P0DTC2 14-1273).
Assay [20] concerns the target SARS-CoV-2 spike protein P479S (SARS-CoV-2, UniProt P0DTC2 14-1273).
Assay [21] concerns the target T4, SARS-CoV-2 spike protein V483A. The source holds these as a separate data set.
Assay [22] has as its target SARS-CoV-2 spike protein F486V (SARS-CoV-2, UniProt P0DTC2 14-1273).
The target in assay [23] is SARS-CoV-2 spike protein Q493K (SARS-CoV-2, UniProt P0DTC2 14-1273).
Assay [24] deals with SARS-CoV-2 spike protein F490S (SARS-CoV-2, UniProt P0DTC2 14-1273).
The target in assay [25] is T2, SARS-CoV-2 spike protein, wild type …. The source holds these as a separate data set.

Changes are numbered by the printed parent chain. Some results are limits rather than exact numbers.

B1: ALE058 (designed binder)
chain: MRGSHHHHHHGSDLGKKLLEAARAGQDDEVRELLKAGADVNAKDYFSHTPLHLAARNGHLKIVEVLLKAGADVNAKDFAGKTPLHLAANEGHLEIVEVLLKAGADVNAQDIFGKTPADIAADAGHEDIAEVLQKAAGSPTPTPTTPTPTPTTPTPTPTGSDLGKKLLEAARAGQDDEVRELLKAGADVNAKDYFSHTPLHLAARNGHLKIVEVLLKAGADVNAKDFAGKTPLHLAANEGHLEIVEVLLKAGADVNAQDIFGKTPADIAADAGHEDIAEVLQKAAGSPTPTPTTPTPTPTTPTPTPTGSDLGKKLLQAARAGQLDEVRELLKAGADVNAKDQEGITPLHVAAHQGHLEIVEVLLKAGADVNAKDVWGRTPLHLAAWRGHLEIVEVLLKAGADVNAKDHAGATPLHAAALSGHLEIVEVLLKAGADVNAQDKSGKTPADLAARAGHQDIAEVLQKAAGSPTPTPTTPTPTPTTPTPTPTGSDLGHKLLLAAQAGQDDEVRILLAAGADVNAKDVFGQTPLHVAAVAGHLEIVEVLLKAGADVNAKDSIGYTPLHHAARVGHLEIVEVLLKAGADVNAQDWIGITPADLAAFEGHEDIAEVLQKAAGSPTPTPTTPTPTPTTPTPTPTGSDLGQKLLHAAQYGQDDEVRILLAAGADVNAKDKQGNTPLHIAAFHGHLEIVEVLLKAGADVNAKDQWGLTPLHLAAAWGHLEIVEVLLKAGADVNAQDNYGQTPADLAAESGHEDIAEVLQKAA
As for B1, the “IC50 LV (live virus cytopathic effect assay)” value in assay [1] came to 0.1 nM. For the same molecule, the “Potency of inhibition of SARS-CoV-2 spike protein variants (IC50)” value in assay [2] amounted to 0.00548 nM; in assay [3], 0.00464 nM; in assay [4] it was 0.0145 nM; in assay [5] it was 0.0324 nM; in assay [6], 0.0224 nM. Further, in assay [7], the “IC50 (read off the curve), SARS-CoV-2 VSV pseudotype virus, no competitor” value was approximately 0.1 nM.

B2: vS07_23E04 (designed binder)
chain: MRGSHHHHHHGSDLGKKLLQAARAGQLDEVRELLKAGADVNAKDQEGITPLHVAAHQGHLEIVEVLLKAGADVNAKDVWGRTPLHLAAWRGHLEIVEVLLKAGADVNAKDHAGATPLHAAALSGHLEIVEVLLKAGADVNAQDKSGKTPADLAARAGHQDIAEVLQKAA
notes: also called R3c
As for B2, in assay [8], the “protection of Vero E6 cells from SARS-CoV-2 cytopathic effect” value (shortened to “protection of Vero E6 cells”) worked out at 20 nM. The “VSV-SARS-CoV-2 IC50” value in assay [9] was less than 2 nM. Further, the “VSV Pseudotype Neutralization Assay IC50” value in [10] is 13.3 ng/mL; in assay [11] it was more than 100 ng/mL; in assay [12] it was 27.8 ng/mL; in assay [13], more than 100 ng/mL; in [14] it was 3.6 ng/mL; in assay [15], 3.3 ng/mL. The “VSV Pseudotype Neutralization Assay IC50” value in [16] stood at 23 ng/mL; in assay [17], 9 ng/mL; in assay [18], 12.9 ng/mL; in assay [19] it was 16.7 ng/mL; in assay [20], 27.6 ng/mL; in [21] it was 21.3 ng/mL. Besides, the “VSV Pseudotype Neutralization Assay IC50” value in assay [22] was more than 100 ng/mL; in assay [23], 45.8 ng/mL; in assay [24] it was 8.1 ng/mL.

B3: vS07_29B10 (designed binder)
chain: B2 chain with Q45R, V53L, H56Q, Q57H, R90Q, H111L, A119V, S123Y
notes: also called R3b
For the molecule B3, in assay [8], the “protection of Vero E6 cells” value came out at 20 nM. In addition, the “VSV-SARS-CoV-2 IC50” value in [9] is less than 2 nM. In addition, the “VSV Pseudotype Neutralization Assay IC50” value is 7.2 ng/mL in assay [10]; 76 ng/mL in assay [11]; 9.1 ng/mL in assay [12]; 64.2 ng/mL in assay [13]; 1.8 ng/mL in assay [14]; 10.9 ng/mL in assay [15]. Moreover, the “VSV Pseudotype Neutralization Assay IC50” value in assay [16] worked out at 11.9 ng/mL; in assay [17] it was 3 ng/mL; in [18], 7.3 ng/mL; in assay [19], 11.2 ng/mL; in assay [20], 7.2 ng/mL; in [21], 21.8 ng/mL. For the same molecule, the results for the “VSV Pseudotype Neutralization Assay IC50” value in assay [22], in assay [23] and in [24] were more than 100 ng/mL, 30 ng/mL and 2.3 ng/mL, respectively.

B4: vS07_12C06 (designed binder)
chain: B2 chain with Q45R, I48K, H56Q, Q57E, R90I, H111V, A112S, S123H, K134N
notes: also called R1b; Rb1
In the case of B4, the “protection of Vero E6 cells” value in assay [8] turned out to be 2 nM. Moreover, the “VSV-SARS-CoV-2 IC50” value in assay [9] was less than 2 nM. Further, the “VSV Pseudotype Neutralization Assay IC50” value in assay [10] came out at 2.1 ng/mL; in assay [11], 26 ng/mL; in assay [12], 4.8 ng/mL; in [13] it was 10.2 ng/mL; in assay [14], 1 ng/mL; in [15], 5.9 ng/mL. Further, the “VSV Pseudotype Neutralization Assay IC50” value in assay [16] was found to be 6.2 ng/mL; in assay [17] it was 2 ng/mL; in assay [18], 5.3 ng/mL; in [19] it was 3.1 ng/mL; in assay [20], 2.3 ng/mL; in assay [21] it was 8.4 ng/mL. For the same molecule, the “VSV Pseudotype Neutralization Assay IC50” value in assay [22] is more than 100 ng/mL; in assay [23], 28.2 ng/mL; in assay [24], 1.7 ng/mL.

B5: ALE030 (designed binder)
chain: MRGSHHHHHHGSDLGKKLLEAARAGQDDEVRELLKAGADVNAKDYFSHTPLHLAARNGHLKIVEVLLKAGADVNAKDFAGKTPLHLAANEGHLEIVEVLLKAGADVNAQDIFGKTPADIAADAGHEDIAEVLQKAAGSPTPTPTTPTPTPTTPTPTPTGSDLGKKLLEAARAGQDDEVRELLKAGADVNAKDYFSHTPLHLAARNGHLKIVEVLLKAGADVNAKDFAGKTPLHLAANEGHLEIVEVLLKAGADVNAQDIFGKTPADIAADAGHEDIAEVLQKAAGSPTPTPTTPTPTPTTPTPTPTGSDLGKKLLQAARAGQLDEVRELLKAGADVNAKDREGITPLHLAAQHGHLEIVEVLLKAGADVNAKDVWGRTPLHLAAWQGHLEIVEVLLKAGADVNAKDLAGATPLHVAALYGHLEIVEVLLKAGADVNAQDKSGKTPADLAARAGHQDIAEVLQKAAGSPTPTPTTPTPTPTTPTPTPTGSDLGNKLLDAAWVGQDDEVRILLAAGADVNAKDWQGETPLHLAATKGHLEIVEVLLKAGADVNAKDVVGYTPLHVAASQGHLEIVEVLLKAGADVNAQDVHGYTPADLAAQAGHEDIAEVLQKAAGSPTPTPTTPTPTPTTPTPTPTGSDLGKKLLQAARAGQLDEVRELLKAGADVNAKDREGKTPLHVAAQEGHLEIVEVLLKAGADVNAKDVWGRTPLHLAAWIGHLEIVEVLLKAGADVNAKDVSGATPLHAAALHGHLEIVEVLLNAGADVNAQDKSGKTPADLAARAGHQDIAEVLQKAA
Consider B5, for which the “IC50, SARS-CoV-2 VSV pseudovirus neutralization (luciferase)” value in [25] stood at 0.119 nM.
